Measured values from the supplement of paper PMC12042874.
± gives the uncertainty stated by the source.

Test: amyloid nucleation score (Sup35N fusion, yeast selection) (log enrichment); library NNK2; higher = more nucleation; inactive = no reads after selection
Procedure, shortened: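 The nucleation score is the DiMSum log enrichment of output over input reads, centred on the mode score of non-aggregating sequences. Only sequences with 100 or more input reads were scored, using Illumina sequencing of input and output plasmid inserts. Psi-negative yeast expressing Sup35N fused to peptides of 20 random codons were induced 24 hours with 100 μM copper sulfate and grown 7 days at 30°C on medium lacking adenine and uracil.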

With RDSVIYCCMMMKGTCAWLYL the amyloid nucleation score was “inactive”.
In the case of REVDIISHTMGGHRFNRERN, the amyloid nucleation score is reported as “inactive”.
With RFAFVRNKTWEQLPMI the amyloid nucleation score was “inactive”.
With RFEWVPGLSKGN the amyloid nucleation score was “inactive”.
In the case of RFIRSWNFCDRD, the amyloid nucleation score is reported as “inactive”.
For RFLKNRMLNCKVIGIWWKCY, the amyloid nucleation score was “inactive”.
With RFRFYYCLDCSHL the amyloid nucleation score was “inactive”.
For RFYLVIFFVTL, the amyloid nucleation score was “inactive”.
For RILWK, the amyloid nucleation score was “inactive”.
In the case of RKQNTVQWSNHFLHCKMPST, the amyloid nucleation score is reported as “inactive”.
For RKVCFLAVKCGGFVCFIVRA, the amyloid nucleation score was “inactive”.

Point of comparison: RLCVILCQVMTWRMAVSILE, amyloid nucleation score 0.228 ± 0.56. Against it:
- RDVFVLCWDFFMVERCRDRC — higher, 5.85 ± 0.072
- RDVLTDNQNAIRLLRGVSAY — within error, 0.298 ± 0.19
- RDVWVRGLACLVASSTMHSS — within error, 0.999 ± 0.32
- RECLRLDGGPMNWV — within error, 0.192 ± 1
- RELQNLFPHCILWSIIMKPN — lower, -1.49 ± 1.1
- REVQYWARYLSVMQLCFVSS — higher, 2.19 ± 0.13
- REVWCRISLKFFYMGDLFVR — within error, 0.008 ± 0.8
- REWVRYCRCWSCYYPTFFS — within error, -0.198 ± 0.63
- RFCHTSRGSGGLGRLCQLAL — within error, 0.157 ± 1
- RFDSPG — within error, 0.558 ± 0.4
- RFFSMVTR — within error, 0.025 ± 0.33
- RFFYSCQASYPCSMVEMSVC — lower, -0.901 ± 0.44
- RFGSADVSITRVDFSS — higher, 0.961 ± 0.15
- RFHGTGSQHS — within error, -0.496 ± 0.39
- RFMFGNVKMLCVWAKRMLDI — higher, 3.16 ± 0.12
- RFRTKLECPYMIS — within error, 0.453 ± 0.35
- RFTLIFCGSRESNGG — higher, 6.43 ± 0.065
- RFVDEPWNTRDTDFLYV — within error, -0.368 ± 1.1
- RFWMNNSLNLCQLILTR — within error, 0.333 ± 0.61
- RFYDFLFLFIPSRIELIMFR — within error, -0.729 ± 1.1
- RFYIALMDFRSMIFGS — higher, 5.195 ± 0.046
- RGALVICCNTLSCGRGRLGD — higher, 10.22 ± 0.074
- RGKFHCFL — within error, -0.599 ± 0.41
- RGLISSVFVVMFDACGVIRC — higher, 5.605 ± 0.035
- RGLRA — within error, -0.213 ± 0.41
- RGLRMTRIISFFGIVGL — higher, 8.507 ± 0.026
- RGWKSLWRLNFYVWVWHLKD — higher, 2.67 ± 0.09
- RHAASVWLKDQDVLYPTMT — higher, 0.995 ± 0.16
- RHAHWRVSSMDSVQFMWGE — higher, 3.18 ± 0.12
- RHHYHSYGSTLVKVRAGQRC — higher, 4.88 ± 0.077
- RHQCIIWDIISLPGIWLCRR — higher, 1.13 ± 0.23
- RHVCYGGQYLVANHSGM — within error, -0.267 ± 0.65
- RHVYWSRSPPRTYGKEWTKG — within error, 0.647 ± 0.23
- RIIGTDLSRLWWIKFKVKRG — within error, -0.091 ± 0.65
- RILQSGLGV — within error, 0.336 ± 0.56
- RILVTGI — within error, -0.653 ± 0.79
- RILYMMDFSFGANSIYFYWN — higher, 4.4 ± 0.065
- RIRVVPKWSFISNRRNCGKL — higher, 4.25 ± 0.054
- RISDDWVYLLCSCKGQGFLW — within error, 0.157 ± 1
- RISECAIYARTGSYMSMRRR — higher, 4.08 ± 0.051
- RITFVILYDAFGEDMDLVSL — higher, 2.09 ± 0.12
- RITVEKHSQCALMLHRQYCV — higher, 1.39 ± 0.16
- RIYFGQIRGDW — higher, 4.04 ± 0.12
- RKEIRGLTMTRPIVDPMRTK — within error, 0.932 ± 0.81
- RKPPMPRFQLDSNRQKG — within error, 0.313 ± 0.64
- RKVTAVHLRHPP — higher, 2.2 ± 0.15
- RLDLYRNMAMVVWQSIDEPP — within error, 0.574 ± 0.41
- RLEPYCILSRV — lower, -1.75 ± 0.48
- RLFQE — within error, -0.153 ± 1.1
- RLFYRYWCL — lower, -0.797 ± 0.35
- RLHGGHLRRM — within error, 0.902 ± 0.21
- RLIKTHVVKLFQSRWWVIGD — within error, 0.631 ± 0.51
- RLILFAMTVLLASRGYNVRS — within error, 0.402 ± 0.21
- RLISYNSCLSWSSWG — higher, 3.48 ± 0.087
- RLKTDRLAMIPVRPKRFPGP — within error, 0.191 ± 0.63
- RLLDFCQFPVTS — higher, 3.7 ± 0.063
- RLLLEDASIVGLIITYYLMF — within error, 0.085 ± 0.8
- RLMRAKCMQWVSFQ — within error, -0.034 ± 0.4
- RLNHGVSRSYDPPRRWAGSR — within error, 0.07 ± 0.61
- RLNLGYYKEAVYN — lower, -1.65 ± 0.63
- RLNMYSLSRLVYWAIVMRKM — within error, 0.823 ± 0.25
- RLNYA — within error, 0.772 ± 0.81
- RLRNLFSYWLSEERSGPDGW — higher, 2.03 ± 0.14
- RLSCKED — within error, 0.108 ± 0.61
- RLSLGKGAVTDT — within error, 0.837 ± 0.19
- RLTLVNRAGCIVCNGQGCLQ — higher, 9.245 ± 0.069
- RLVTGGVWMDSDDSYRVIET — within error, -0.032 ± 1.1
- RLWCLRSTNEMAVSCYRSWD — higher, 4.47 ± 0.049
- RLYIIIRFGIVHVT — within error, -0.078 ± 0.21
- RLYNKALYANFKNYSLTCFS — within error, -0.39 ± 0.64
- RMCDL — lower, -1.19 ± 0.79
- RMFVW — within error, -0.341 ± 0.37
- RMFWLIVQLGGSFDRLYGFR — within error, 1.21 ± 0.45
- RMGKRNFEQNSANQWVPMNP — within error, 0.691 ± 0.6
- RMHWTKTH — within error, -0.311 ± 1.1
